Reference: patent publication US20180244758A1 (MAPP BIOPHARMACEUTICAL, published 2018)

T1: EBOV GP on rVSV particles (Ebola virus (EBOV), UniProt Q05320 33-676)
T1 sequence: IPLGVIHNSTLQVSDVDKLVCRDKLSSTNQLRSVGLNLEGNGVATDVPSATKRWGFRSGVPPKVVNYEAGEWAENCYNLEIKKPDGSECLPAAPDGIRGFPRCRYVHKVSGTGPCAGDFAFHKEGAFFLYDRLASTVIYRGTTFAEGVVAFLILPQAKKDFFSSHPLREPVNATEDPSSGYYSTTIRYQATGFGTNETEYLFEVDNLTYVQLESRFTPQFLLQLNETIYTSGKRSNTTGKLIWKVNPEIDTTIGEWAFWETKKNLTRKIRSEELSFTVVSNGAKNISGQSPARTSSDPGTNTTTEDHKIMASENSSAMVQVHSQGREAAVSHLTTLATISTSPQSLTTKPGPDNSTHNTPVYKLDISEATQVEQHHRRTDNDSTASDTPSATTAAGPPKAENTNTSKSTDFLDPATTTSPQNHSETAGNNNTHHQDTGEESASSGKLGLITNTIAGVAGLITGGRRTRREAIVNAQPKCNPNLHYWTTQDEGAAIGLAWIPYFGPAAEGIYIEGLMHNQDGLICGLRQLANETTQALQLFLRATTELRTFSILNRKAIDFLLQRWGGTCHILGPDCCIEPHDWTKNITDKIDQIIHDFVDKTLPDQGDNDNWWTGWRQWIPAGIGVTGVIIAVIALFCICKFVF

T2: SUDV GP on rVSV particles (Sudan virus (SUDV), UniProt Q66814 33-676)
T2 sequence: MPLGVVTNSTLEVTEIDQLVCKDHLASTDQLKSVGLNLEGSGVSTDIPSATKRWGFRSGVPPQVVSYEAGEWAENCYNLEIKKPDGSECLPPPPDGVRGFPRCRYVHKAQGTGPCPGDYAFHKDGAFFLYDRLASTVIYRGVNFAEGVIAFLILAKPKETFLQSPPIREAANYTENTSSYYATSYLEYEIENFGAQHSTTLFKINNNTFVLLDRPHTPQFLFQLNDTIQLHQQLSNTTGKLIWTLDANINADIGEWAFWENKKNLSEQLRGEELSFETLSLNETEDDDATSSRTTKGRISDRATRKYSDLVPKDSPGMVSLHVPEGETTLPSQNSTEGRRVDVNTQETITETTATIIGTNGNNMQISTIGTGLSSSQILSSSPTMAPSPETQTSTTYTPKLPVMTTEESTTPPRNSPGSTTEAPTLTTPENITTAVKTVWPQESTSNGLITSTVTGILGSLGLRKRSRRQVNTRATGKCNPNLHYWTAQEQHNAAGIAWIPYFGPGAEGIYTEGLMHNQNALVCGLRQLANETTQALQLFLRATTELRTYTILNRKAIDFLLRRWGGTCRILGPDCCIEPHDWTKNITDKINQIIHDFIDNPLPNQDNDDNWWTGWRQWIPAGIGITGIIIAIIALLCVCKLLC

T3: TAFV GP on VSV pseudotype particles (Tai Forest virus (TAFV), UniProt Q66810 33-676)
T3 sequence: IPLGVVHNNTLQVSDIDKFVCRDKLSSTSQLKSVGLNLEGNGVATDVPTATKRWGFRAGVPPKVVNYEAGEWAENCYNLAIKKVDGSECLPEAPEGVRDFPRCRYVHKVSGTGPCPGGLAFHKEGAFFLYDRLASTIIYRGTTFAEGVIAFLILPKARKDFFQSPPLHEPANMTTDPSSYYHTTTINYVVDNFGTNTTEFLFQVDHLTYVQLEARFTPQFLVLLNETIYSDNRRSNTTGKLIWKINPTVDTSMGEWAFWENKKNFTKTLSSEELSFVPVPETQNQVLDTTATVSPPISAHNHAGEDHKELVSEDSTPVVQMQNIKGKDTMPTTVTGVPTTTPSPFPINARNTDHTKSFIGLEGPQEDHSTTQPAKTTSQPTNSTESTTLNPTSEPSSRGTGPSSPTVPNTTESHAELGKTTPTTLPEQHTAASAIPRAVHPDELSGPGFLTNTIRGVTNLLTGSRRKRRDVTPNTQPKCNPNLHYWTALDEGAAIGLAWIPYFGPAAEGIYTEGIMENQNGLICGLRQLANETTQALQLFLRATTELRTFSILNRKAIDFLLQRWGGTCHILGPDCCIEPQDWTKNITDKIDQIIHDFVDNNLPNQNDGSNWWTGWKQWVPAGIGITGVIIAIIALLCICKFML

T4: GP of authentic (wild-type) EBOV (Ebola virus (EBOV), UniProt P87666 33-676)
T4 sequence: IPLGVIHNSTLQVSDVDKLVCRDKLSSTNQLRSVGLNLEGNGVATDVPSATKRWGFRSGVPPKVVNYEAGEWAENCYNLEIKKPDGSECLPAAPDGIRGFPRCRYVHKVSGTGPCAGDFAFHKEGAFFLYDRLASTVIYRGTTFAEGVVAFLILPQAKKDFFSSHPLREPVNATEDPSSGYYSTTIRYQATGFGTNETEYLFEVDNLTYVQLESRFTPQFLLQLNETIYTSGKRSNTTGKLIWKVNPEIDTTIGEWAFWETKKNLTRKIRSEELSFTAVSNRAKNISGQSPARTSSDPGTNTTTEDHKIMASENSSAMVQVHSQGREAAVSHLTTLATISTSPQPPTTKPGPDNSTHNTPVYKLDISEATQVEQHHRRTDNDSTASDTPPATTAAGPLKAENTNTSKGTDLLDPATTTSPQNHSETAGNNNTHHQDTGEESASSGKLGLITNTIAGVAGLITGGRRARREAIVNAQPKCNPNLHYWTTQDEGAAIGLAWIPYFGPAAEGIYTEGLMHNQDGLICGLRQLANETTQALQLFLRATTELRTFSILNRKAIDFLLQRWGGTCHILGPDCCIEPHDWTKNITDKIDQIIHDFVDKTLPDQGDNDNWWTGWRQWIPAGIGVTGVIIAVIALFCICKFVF


What was measured:
Assay in all cases: cell-based or functional assay
[1] = target: T1, EBOV GP on rVSV particles
[2] = target: T2, SUDV GP on rVSV particles
[3] = target: BDBV GP on rVSV particles (Bundibugyo virus (BDBV))
[4] = target: T3, TAFV GP on VSV pseudotype particles
[5] = target: T4, GP of authentic (wild-type) EBOV
[6] = target: GP of authentic (wild-type) BDBV (Bundibugyo virus (BDBV))

Binder	Neutralization (VSV-GP IC50, nM) [1]	Neutralization (VSV-GP IC50, nM) [2]	Neutralization (VSV-GP IC50, nM) [3]	Neutralization (VSV-GP IC50, nM) [4]	Microneut. WT IC50 [5]	Neut. WT EBOV PRNT50 [5]	Microneut. WT IC50 [6]
mAb PE-87 (antibody, V domains shown) VH: QVQLVQSGVTLVQPGGSLRVSCAASGFTFSSYAMSWVRQAPGKGLEWVSAISGLGGSTYYADSVKGRFTISRDNSKNTLYLQMNSLRAEDTAVYYCAKDHRVWAAGYHFDYWGQGALVTVSS VL: DIVLTQSPSTLSASVGDRVTITCRASQSISSWLAWYQQKPGEAPKLLISDASSLESGVPSRFSGSGSGTEFTLTISSLQPDDFATYYCQQYYSSPTFGGGTKVEIK	0.5 nM	0.3 nM	0.5 nM	1 nM	0.3 nM	< 0.05 nM	0.4 nM
mAb PE-24 (antibody, V domains shown) VH: EVQLVESGGGLVQPGGSLRLSCAASGFTFSSYAMSWVRQAPGKGLEWVSEISGLGGSTYYADSAKGRFTISRDNSKSTLYLQMNSLRAEDTAVYYCAKDHRVWAPGYYFDHWGQGTLVTVSS VL: DIVLTQSPSTLSASVGDRVTITCRASQSISSWLAWYQQKPGKAPKLLIYDASSLESGVPSRFSGSGSGTEFTLTISSLQPDDFATYFCQQYNRSPTFGGGTKVEIK	1.8 nM	0.5 nM	0.8 nM	1.5 nM	1 nM	0.4 nM	0.3 nM
mAb PE-16 (antibody, V domains shown) VH: QVQLVQSGAEVTKPGASVKVSCKASGYTFTTYYMHWVRQAPGQGLEWVGIINPSGGITRYAQKFQGRVTLTRDTSTTTVYMELSSLRSEDTAVYYCARDRYPVLFATDYGMDVWGQGTTVTVSS VL: DIVMTQSPATLSLSPGERATLSCRASQSVSGYLAWYQQKPGQAPRLLIYDASNRATGIPARFSGSGSGTDFTLTISSLEPEDFAVYYCQQRSIWPPGVTFGGGTKVEIK	0.2 nM	–	0.6 nM	4.8 nM	0.05 nM	< 0.02 nM	0.2 nM
mAb PE-05 (antibody, V domains shown) VH: QVQLQESGGGLVKPGRSLRLSCTASGFTFGDYAMSWFRQAPGKGLEWVGFLRSKAYGGTAEYAASVKGRFTMSRDDSKSIAYLQMNSLKTEDTAVYFCTRDGFRGSSWGYSYYGMDVWGQGTTVTVSS VL: not shown	8.8 nM	34 nM	3.7 nM	0.8 nM	7.7 nM	4 nM	–
mAb PE-47 (antibody, V domains shown) VH: EVQLVESGGGLVKPGGSLRLSCAASGFTFSNAWMSWVRQAPGEGLEWVGRIKSKTDGGTIDYAAPVKGRFTISRDDSKNTVYLQMTSLKTEDTAVYYCTTYTEDMQYFDWLLRGGETFDYWGQGTLVTVSS VL: DIQMTQSPSSLSASVGDRVTITCRASQYISTYLNWYQQKPGKAPKLLIYAAYNLQSGVPSRFSGSGSGTDFTLTISSLQPEDFATYYCQQSYSTPGRYTFGQGTKVEIK	6.6 nM	5.1 nM	0.4 nM	6.1 nM	0.7 nM	–	0.5 nM
